Data: article PMC7052508 (Biochemistry and Biophysics Reports, 2020)
Where two headings read alike, the source gives them in different places.

B1: creatine kinase M (CKMM) (enzyme)
chain: not shown
B2: α-crystallin (fraction containing αA-crystallin and αB-crystallin) (complex, porcine (purified from porcine lenses))
chain 1: MDIAIQHPWFKRALGPFYPSRLFDQFFGEGLFEYDLLPFLSSTISPYYRQSLFRTVLDSGVSEVRSDRDKFVIFLDVKHFSPEDLTVKVQEDFVEIHGKHNERQDDHGYISREFHRRYRLPSNVDQSALSCSLSADGMLTFSGPKVPSGVDAGHSERAIPVSREEKPSSAPTS
chain 2: MDIAIHHPWIRRPFFPFHSPSRLFDQFFGEHLLESDLFPASTSLSPFYFRPPSFLRAPSWIDTGLSEMRLEKDRFSVNLDVKHFSPEELKVKVLGDVIEVHGKHEERQDEHGFISREFHRKYRIPADVDPLTITSSLSSDGVLTVNGPRRQASGPERTIPITREEKPAVTAAPKK

Assays:
[1] = molecular target: B2; assay: ITC
[2] = molecular target: B2; assay: ITC; remark: listed apart in the source
[3] = molecular target: B2; assay: ITC; remark: listed apart in the source
[4] = molecular target: B2; assay: ITC; remark: listed apart in the source
[5] = molecular target: B1; assay: ITC
[6] = molecular target: B1; assay: ITC; remark: listed apart in the source
[7] = molecular target: B1; assay: ITC; remark: listed apart in the source
[8] = molecular target: the molecule itself; assay: SEC-MALS

Binder	dH [1]	stoichiometry N [1]	dH [2]	stoichiometry N [2]	stoichiometry N [3]	dH [4]	stoichiometry N [4]	Ka [5]	Kd [5]	Ka [6]	Kd [6]	Ka [7]	Kd [7]	stoichiometry N [8]
B1	130 kcal/mol	0.063	102 kcal/mol	0.068	28	86.6 kcal/mol	0.068							
B2								4.37e+06 M⁻¹	228 nM	1.23e+06 M⁻¹	816 nM	3e+06 M⁻¹	333 nM	28 to 40
